According to US20210238298A1 (ALLIGATOR BIOSCIENCE, published 2021):
Changes are numbered by the printed parent chain. Names and notes keep the numbering of the source.

B1: CD86 mutant 900 (ligand)
chain: LKIQAYFNETADLPCQFANSQNQSLSELVVFWQDQENLVLNEVYLGKEKFDSVDSKYMGRTSFDSDSWTLRLHNLQIKDKGIYQCVIHHKKPSGLVKIHEMNSELSVLA
notes: Variant of the CD86 extracellular domain
B2: CD86 mutant 1039 (ligand)
chain: APLKIQAYFNETADLPCQFANSQNLSLSELVVFWQDQENLVLNEVYLGKEKFDSVSSKYMGRTSFDSDSWTLRLHNLQIKDKGIYQCIIHHKKPSGMVKIHQMDSELSVLA
notes: as for B1
B3: CD86 mutant 1038 (ligand)
chain: B2 chain with S56D, S95T, Q102E, D104N
notes: as for B1
B4: CD86 mutant 1043 (ligand)
chain: B2 chain with S56D, S95T, V98I, Q102E, D104N
notes: as for B1
B5: CD86 mutant 1045 (ligand)
chain: B2 chain with S26T, S56D, I84L, S95T, M97L, Q102E, D104N
notes: as for B1
B6: CD86 mutant 1046 (ligand)
chain: B2 chain with L25Q, S56D, K80E
notes: as for B1
B7: CD86 mutant 1044 (ligand)
chain: B2 chain with S26T, S95T, V98I, Q102E, D104S
notes: as for B1
B8: CD86 mutant 1041 (ligand)
chain: B2 chain with F9L, S56D, S95T, M97L, Q102E, D104N
notes: as for B1
B9: CD86 mutant H79A (Peach et al.) (ligand)
chain: B2 chain with L25Q, S56A, I84L, S95T, V98I, K99R, D104N
notes: also called Prior Art
B10: CD86 mutant 1047 (ligand)
chain: B2 chain with S56D, S95T, M97L, Q102E, D104N
notes: as for B1
B11: CD86 mutant 1042 (ligand)
chain: B2 chain with K51I
notes: as for B1

Molecular target: T1, CTLA4-Fc (Fitzgerald, #30R-CD152) (human, UniProt P16410 38-152)
T1 construct: Bought; also called human CTLA-4 (Fitzgerald); biotinylated-CTLA4; not shown: Fc part of the bought fusion, not described
Assay: ELISA on coated CTLA4-Fc and CD28-Fc
Protocol: 96-well flat bottom high binding plates (Greiner, #655074) were coated with either CTLA4-Fc (Fitzgerald, #30R-CD152) or CD28-Fc (R&D systems, 342-CD) by incubating overnight at 4° C. […] The plates were washed again and sample or controls (serially diluted ⅕ from 200-0.001 μg/ml) were added to the wells. The samples were incubated for 1 h at room temperature and then washed. Detection antibody, goat-anti-human IgG Fcγ-HRP (Jackson, #109-035-098) was added and the plates were subsequently developed using SuperSignal Pico Chemiluminescent substrate (Thermo Scientific, #37069) and detected with an Envision reader (Perkin Elmer). EC50 values were calculated for both CTLA4 and CD28. The binding ratio (EC50 binding ratio=[EC50 for CD28]÷[EC50 for CTLA-4]) was calculated for each polypeptide and is shown in Table 1.1.

T1 sequence (P16410 38-152 limits assumed): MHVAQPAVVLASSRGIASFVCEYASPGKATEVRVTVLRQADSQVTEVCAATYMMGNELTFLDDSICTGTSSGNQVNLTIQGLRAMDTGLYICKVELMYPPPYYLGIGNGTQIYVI

Question: How did the “EC50 binding ratio ([EC50 for CD28]/[EC50 for CTLA-4])” value turn out when B1 was run?
Answer: Its value is 3.5.

Molecular target: T1, CTLA4-Fc (Fitzgerald, #30R-CD152)
Assay: SPR (Biacore), immobilised CTLA4-Fc
Protocol: Either CTLA4-Fc (Fitzgerald, #30R-CD152) or CD28-Fc (R&D Systems, 342-CD) was immobilized to the Biacore™ sensor chip, CM5, using conventional amine coupling. The CD86 mutant molecules and controls (serially diluted ½ 100-1.5 nM) were analyzed for binding in HBS-P (GE, BR-1003-68) at a flow rate of […]. The association was followed for 3 minutes and the dissociation for 10 minutes. Regeneration was performed twice using 5 mM NaOH for 30 seconds. The kinetic parameters and the affinity constants were calculated using BIAevaluation 4.1 software (Table 1.3).

Question: Which results are given for B2?
Answer: Kd: 8 nM; koff: 0.0085 s⁻¹; kon: 1e+06 M⁻¹ s⁻¹

Question: Which results are given for B3?
Answer: Kd: 12 nM; koff: 0.012 s⁻¹; kon: 1e+06 M⁻¹ s⁻¹

Question: Which Kd does the source give for B4 here?
Answer: Its Kd is 10 nM.

Question: And the koff?
Answer: The koff was 0.011 s⁻¹.

Question: And the kon?
Answer: Its kon is 1.1e+06 M⁻¹ s⁻¹.

Question: Which results are given for B5?
Answer: Kd: 9 nM; koff: 0.0083 s⁻¹; kon: 940000 M⁻¹ s⁻¹

Question: For B6, which Kd is on record?
Answer: Its Kd is 6 nM.

Question: And the koff?
Answer: The koff was 0.008 s⁻¹.

Question: What about the kon of the same binder?
Answer: The kon was 1.4e+06 M⁻¹ s⁻¹.

Question: B7 was tested. Which Kd did it give?
Answer: Its Kd is 8 nM.

Question: What about the koff of the same binder?
Answer: Its koff is 0.0094 s⁻¹.

Question: What about the kon of the same binder?
Answer: The kon was 1.1e+06 M⁻¹ s⁻¹.

Question: Which results are given for B8?
Answer: Kd: 12 nM; koff: 0.0084 s⁻¹; kon: 700000 M⁻¹ s⁻¹

Question: Which results are given for B9?
Answer: Kd: 63 nM; koff: 0.022 s⁻¹; kon: 340000 M⁻¹ s⁻¹

Question: Which results are given for B10?
Answer: Kd: 10 nM; koff: 0.0084 s⁻¹; kon: 850000 M⁻¹ s⁻¹

Question: B11 was tested. Which Kd did it give?
Answer: The Kd was 25 nM.

Question: What about the koff of the same binder?
Answer: The koff was 0.011 s⁻¹.

Question: What about the kon of the same binder?
Answer: Its kon is 440000 M⁻¹ s⁻¹.

Molecular target: T2, soluble murine CTLA-4 (R&D systems) (murine, UniProt P09793 36-162)
T2 construct: Bought
Assay: not described
Protocol: In brief, 96-well flat bottom plate high binding plates (Greiner #655074) were coated with human CTLA-4 (Fitzgerald) incubating overnight at 4° C.
The sample (exemplary CD86 mutant) was pre-incubated at room temperature for 1 hour with soluble biotinylated human CTLA4 (Fitzgerald #30R-CD152) or soluble murine CTLA-4 (R&D systems) at different concentrations (serial dilutions ¼ from 30000 to 0.3 ng/ml).
The mixture was then added to the blocked wells in the ELISA plate. Detection was performed with Streptavidin-HRP (Pierce, #21126) and the plates were subsequently developed using SuperSignal Pico Chemiluminescent substrate (Thermo Scientific, #37069) and detected with Envision reader (Perkin Elmer).

Question: Does B2 bind?
Answer: Result: binds

Question: Does B3 bind?
Answer: Result: binds

Question: Does B4 bind?
Answer: Result: binds

Question: Does B5 bind?
Answer: Result: binds

Question: Does B6 bind?
Answer: Result: binds

Question: Does B7 bind?
Answer: Result: binds

Question: Does B8 bind?
Answer: Result: binds

Question: Does B10 bind?
Answer: Result: binds

Question: Does B11 bind?
Answer: Result: binds

Question: Does B1 bind?
Answer: Result: binds
